Here are results for 20 molecules from US20110086767A1, “MUTANTS OF GLYCOSIDE HYDROLASES AND USES THEREOF FOR SYNTHESIZING COMPLEX OLIGOSACCHARIDES AND DISACCHARIDE INTERMEDIATES” (Institut Pasteur, priority 2008, published 2011).

B1: F229M: single mutant F229M of N. polysaccharea amylosucrase (protein)
chain: SPNSQYLKTRILDIYTPEQRAGIEKSEDWRQFSRRMDTHFPKLMNELDSVYGNNEALLPMLEMLLAQAWQSYSQRNSSLKDIDIARENNPDWILSNKQVGGVCYVDLFAGDLKGLKDKIPYFQELGLTYLHLMPLFKCPEGKSDGGYAVSSYRDVNPALGTIGDLREVIAALHEAGISAVVDFIFNHTSNEHEWAQRCAAGDPLFDNFYYIFPDRRMPDQYDRTLREIMPDQHPGGFSQLEDGRWVWTTFNSFQWDLNYSNPWVFRAMAGEMLFLANLGVDILRMDAVAFIWKQMGTSCENLPQAHALIRAFNAVMRIAAPAVFFKSEAIVHPDQVVQYIGQDECQIGYNPLQMALLWNTLATREVNLLHQALTYRHNLPEHTAWVNYVRSHDDIGWTFADEDAAYLGISGYDHRQFLNRFFVNRFDGSFARGVPFQYNPSTGDCRVSGTAAALVGLAQDDPHAVDRIKLLYSIALSTGGLPLIYLGDEVGTLNDDDWSQDSNKSDDSRWAHRPRYNEALYAQRNDPSTAAGQIYQDLRHMIAVRQSNPRFDGGRLVTFNTNNKHIIGYIRNNALLAFGNFSEYPQTVTAHTLQAMPFKAHDLIGGKTVSLNQDLTLQPYQVMWLEIA
B2: I228M-F229M: double mutant I228M, F229M of N. polysaccharea amylosucrase (protein)
chain: B1 chain with I228M
B3: I228V-F290R: double mutant I228V, F290R of N. polysaccharea amylosucrase (protein)
chain: B1 chain with I228V, M229F, F290R
B4: I228L-F229L: double mutant I228L, F229L of N. polysaccharea amylosucrase (protein)
chain: B1 chain with I228L, M229L
B5: I228V-F229M: double mutant I228V, F229M of N. polysaccharea amylosucrase (protein)
chain: B1 chain with I228V
B6: I228K-F290W: double mutant I228K, F290W of N. polysaccharea amylosucrase (protein)
chain: B1 chain with I228K, M229F, F290W
B7: F229L: single mutant F229L of N. polysaccharea amylosucrase (protein)
chain: B1 chain with M229L
B8: A289H-F290S: double mutant A289H, F290S of N. polysaccharea amylosucrase (protein)
chain: B1 chain with M229F, A289H, F290S
B9: I228C-F229L: double mutant I228C, F229L of N. polysaccharea amylosucrase (protein)
chain: B1 chain with I228C, M229L
B10: I228V-F290H: double mutant I228V, F290H of N. polysaccharea amylosucrase (protein)
chain: B1 chain with I228V, M229F, F290H
B11: I228T-F290K: double mutant I228T, F290K of N. polysaccharea amylosucrase (protein)
chain: B1 chain with I228T, M229F, F290K
B12: I228V-F229L: double mutant I228V, F229L of N. polysaccharea amylosucrase (protein)
chain: B1 chain with I228V, M229L
B13: A289T-F290H: double mutant A289T, F290H of N. polysaccharea amylosucrase (protein)
chain: B1 chain with M229F, A289T, F290H
B14: I228K-F290L: double mutant I228K, F290L of N. polysaccharea amylosucrase (protein)
chain: B1 chain with I228K, M229F, F290L
B15: F290G: single mutant F290G of N. polysaccharea amylosucrase (protein)
chain: B1 chain with M229F, F290G
B16: I228P-F290C: double mutant I228P, F290C of N. polysaccharea amylosucrase (protein)
chain: B1 chain with I228P, M229F, F290C
B17: F290H: single mutant F290H of N. polysaccharea amylosucrase (protein)
chain: B1 chain with M229F, F290H
B18: F290I: single mutant F290I of N. polysaccharea amylosucrase (protein)
chain: B1 chain with M229F, F290I
B19: I228T-F290H: double mutant I228T, F290H of N. polysaccharea amylosucrase (protein)
chain: B1 chain with I228T, M229F, F290H
B20: F290L: single mutant F290L of N. polysaccharea amylosucrase (protein)
chain: B1 chain with M229F, F290L

Substitutions are numbered along the chain they refer to. Names and notes keep the numbering of the source.

The nature of the first assay: HPLC screening of double-mutant libraries for variants able to glucosylate D-GlcpNAc. Format: biochemical. As to conditions: α-D-Glcp-(1→4)-α-D-GlcpNAc (ED) from sucrose and D-GlcpNAc, microplate format. As to the method: The protocol was established to enable the rapid identification of clones for which D-GlcpNAc glucosylation was improved. To obtain higher amounts of enzymes and facilitate detection of glucosylated compounds upon HPLC screening, mutants were produced in 96-DeepWell Format plates. Storage microplates containing monomutants were thawed and replicated to inoculate a starter culture in 96-well microplates containing, in each well, 150 μL LB medium supplemented with ampicillin (100 μg/mL). After growth for 24 h at 30° C. under agitation (200 rpm), plates were duplicated into 96-Deep Well plates containing, in each well, 1.1 mL LB medium supplemented with ampicillin (100 μg/mL) and IPTG (1 mM) to induce GST-AS expression. Cultures were then grown for 24 h at 30° C. under agitation (200 rpm). Plates were centrifuged (20 min, 3000 g, 4° C.) and the supernatant was removed. The cell pellet was resuspended in 200 μL of lysozyme (0.5 mg/mL), followed by freezing at −80° C. for 8 to 12 h. After thawing at room temperature, 100 μL of sucrose and 100 μL of acceptor (each at a final concentration of 73 mM) were added to each well. Enzymatic reaction was incubated at 30° C. during 24 h under agitation. The DeepWell plates were then centrifuged (20 min, 3000 g, 4° C.) and 300 μL of the supernatant was transferred to a filter micro-plate (PVDF 0.2 μm) to be clarified. Supernatant filtration was carried out by centrifugation of the filter micro-plate (5 min, 2000 g, 4° C.) into a novel microplate for screening.
The method for the expression of the mutant libraries is described in Example 1-1.
Acceptor reaction products were analyzed by HPLC analysis using a C18-AQ column (Bischoff C18, 125×4 mm, 3 μm) kept at room temperature and eluted with 0.6 mL/min of ultra-pure water to detect α-D-Glcp-(1→4)-α-D-GlcpNAc formation (analysis time: 7 min). To evaluate the efficiency of the glucosylation reaction, it was carried out complementary HPLC analyses with a Biorad HPX-87K Carbohydrate Analysis column (maintained at 65° C., and eluted at a flow rate of 0.6 mL/min with ultra-pure water). By this way, it was possible to measure sucrose consumption by RI detection and concomitant α-D-Glcp-(1-4)-α-D-GlcpNAc formation by UV220 nm and determine mutant ability to synthesize the desired disaccharide α-D-Glcp-(1→4)-α-D-GlcpNAc (i.e., % Glucosyl units transferred onto acceptor derivatives=[Glucosyl units transferred onto acceptor derivatives]/[Glucosyl units transferred from initial sucrose]×100)
All clones producing sucrose-utilizing variants were then picked and cultured in 96-well microplates. Following cell lysis, the acceptor reaction in the presence of D-GlcpNAc was then carried out in microplate format. HLPC analysis time for each clone was reduced to 7 min for detection of α-D-Glcp-(1→4)-α-D-GlcpNAc. When disaccharide formation was detected, complementary analyses were performed to determine sucrose consumption and disaccharide formation with more accuracy in order to calculate the glucosylation yield.
For B1, the “Glusosylation Yield to synthesize ED” value is recorded as 79%. Regarding B2, the “Glusosylation Yield to synthesize ED” value was found to be 28%. With B3, the “Glusosylation Yield to synthesize ED” value came out at 25%. As to B4, the “Glusosylation Yield to synthesize ED” value worked out at 35%.

On to B5, for which the “Glusosylation Yield to synthesize ED” value amounted to 29%. Regarding B6, the “Glusosylation Yield to synthesize ED” value came out at 50%. With B7, the “Glusosylation Yield to synthesize ED” value was determined as 49%. As for B8, the “Glusosylation Yield to synthesize ED” value came to 40%. On to B9, for which the “Glusosylation Yield to synthesize ED” value was determined as 78%.

For B10, the “Glusosylation Yield to synthesize ED” value is 61%. Consider B11, for which the “Glusosylation Yield to synthesize ED” value is on record as 72%. With B12, the “Glusosylation Yield to synthesize ED” value turned out to be 56%. Same read-out and setting: the figure for B13 is 40%; for B14 it is 47%; for B15 it is 53%.

With B16, the “Glusosylation Yield to synthesize ED” value is 22%. Same read-out and setting: the figure for B17 is 46%. Same read-out and setting: the result for B18 reads 16%; that for B19, 56%.

The same assay, now with this note: α-D-Glcp-(1→4)-α-D-GlcpNAc (ED) from sucrose and D-GlcpNAc, microplate format, listed as DM4_P2_A2.
Regarding B20, the “Glusosylation Yield to synthesize ED” value amounted to 55%.

Still in this assay, the particulars now being: α-D-Glcp-(1→4)-α-D-GlcpNAc (ED) from sucrose and D-GlcpNAc, microplate format, listed as DM4_P2_G9.
In the case of B20, the “Glusosylation Yield to synthesize ED” value came out at 20%.
